This is an account of results in patent publication US20210032308A1 (published 2021).

The assay has as its target T1, recombinant human CD2 (biotinylated) (human, UniProt P06729 25-209, biotinylated (site not stated)).
T1 construct: also called hCD2-biotin; human recombinant CD2
T1 sequence: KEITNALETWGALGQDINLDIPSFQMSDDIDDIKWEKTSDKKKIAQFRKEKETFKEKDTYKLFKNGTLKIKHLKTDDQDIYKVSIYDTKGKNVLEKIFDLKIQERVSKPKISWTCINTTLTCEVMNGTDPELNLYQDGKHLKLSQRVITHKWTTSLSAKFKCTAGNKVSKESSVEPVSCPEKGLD
Briefly: flow cytometry on LFA3-displaying yeast. In general terms: Flow cytometry measures light scatter and fluorescence of single cells or particles in a stream.

B1: N-terminal Ig-domain of human LFA3 (Residues 1-93) displayed on the surface of S. cerevisiae (ligand, not shown: small tags and cut ends; large carriers)
chain: FSQQIYGVVYGNVTFHVPSNVPLKEVLWKKQKDKVAELENSEFRAFSSFKNRVYLDTVSGSLTIYNLTSSDEDEYEMESPNITDTMKFFLYVL
In the case of B1, the binding result is “binds”.
